Our source for the Km values is US7419968B1, “Methods for treating therapy-resistant tumors” (Celmed Oncology (USA), Inc., priority 1999, dated 2008).

Substrate in the data set: O=c1[nH]c(=O)n([C@H]2C[C@H](O)[C@@H](COP(=O)(O)O)O2)cc1/C=C/Br
Description: Enzyme kinetics of rHuTS with dUMP and BVdUMP. Particulars: other: rHuTS; 37.0 °C. In kind it is biochemical, human. The protocol:
L. Enzyme Preparation. Cloned human thymidylate synthase plasmid pBCHTS was subcloned into E. coli. BL21 (DE3)/pET-28a(+) (Novagen) using the NdeI ñSacI insertion site, in order to add an amino terminal His tag. […] M. Enzyme Assays and Kinetic Measurements. […] Tetrahydrofolate stock solutions were prepared by dissolving tetrahydrofolic acid (Sigma) directly into 0.2 M Tris pH 7.5, 0.5 M-mercaptoethanol; stock solutions were stored at -80° C. […] N5, N10-methylene tetrahydrofolate was kept on ice and used within 2 hours of preparation. […] The catalytic efficiency of the enzyme (Kcat/Km) was calculated from the kinetic constants Km and Vmax.

B1: recombinant human thymidylate synthase (rHuTS) (Homo sapiens) (protein)
chain: MPVAGSELPRRPLPPAAQERDAEPRPPHGELQYLGQIQHILRCGVRKDDRTGTGTLSVFGMQARYSLRDEFPLLTTKRVFWKGVLEELLWFIKGSTNAKELSSKGVKIWDANGSRDFLDSLGFSTREEGDLGPVYGFQWRHFGAEYRDMESDYSGQGVDQLQRVIDTIKTNPDDRRIIMCAWNPRDLPLMALPPCHALCQFYVVNSELSCQLYQRSGDMGLGVPFNIASYALLTYMIAHITGLKPGDFIHTLGDAHIYLNHIEPLKIQLQREPRPFPKLRILRKVEKIDDFKAEDFQIEGYNPHPTIKMEMAV
notes: His tag (N); made in house; host or cells: E. coli BL21 (DE3), pET-28a(+)
Turning to B1, the Km came out at 16 μM μM.
